Data as given in IntAct's records for PubMed 31515488.

B1: DCC-interacting protein 13-beta (Homo sapiens), Q8NEU8 (parent)
chain: MPAVDKLLLEEALQDSPQTRSLLSVFEEDAGTLTDYTNQLLQAMQRVYGAQNEMCLATQQLSKQLLAYEKQNFALGKGDEEVISTLHYFSKVVDELNLLHTELAKQLADTMVLPIIQFREKDLTEVSTLKDLFGLASNEHDLSMAKYSRLPKKKENEKVKTEVGKEVAAARRKQHLSSLQYYCALNALQYRKQMAMMEPMIGFAHGQINFFKKGAEMFSKRMDSFLSSVADMVQSIQVELEAEAEKMRVSQQELLSVDESVYTPDSDVAAPQINRNLIQKAGYLNLRNKTGLVTTTWERLYFFTQGGNLMCQPRGAVAGGLIQDLDNCSVMAVDCEDRRYCFQITTPNGKSGIILQAESRKENEEWICAINNISRQIYLTDNPEAVAIKLNQTALQAVTPITSFGKKQESSCPSQNLKNSEMENENDKIVPKATASLPEAEELIAPGTPIQFDIVLPATEFLDQNRGSRRTNPFGETEDESFPEAEDSLLQQMFIVRFLGSMAVKTDSTTEVIYEAMRQVLAARAIHNIFRMTESHLMVTSQSLRLIDPQTQVSRANFELTSVTQFAAHQENKRLVGFVIRVPESTGEESLSTYIFESNSEGEKICYAINLGKEIIEVQKDPEALAQLMLSIPLTNDGKYVLLNDQPDDDDGNPNEHRGAESEA
partner: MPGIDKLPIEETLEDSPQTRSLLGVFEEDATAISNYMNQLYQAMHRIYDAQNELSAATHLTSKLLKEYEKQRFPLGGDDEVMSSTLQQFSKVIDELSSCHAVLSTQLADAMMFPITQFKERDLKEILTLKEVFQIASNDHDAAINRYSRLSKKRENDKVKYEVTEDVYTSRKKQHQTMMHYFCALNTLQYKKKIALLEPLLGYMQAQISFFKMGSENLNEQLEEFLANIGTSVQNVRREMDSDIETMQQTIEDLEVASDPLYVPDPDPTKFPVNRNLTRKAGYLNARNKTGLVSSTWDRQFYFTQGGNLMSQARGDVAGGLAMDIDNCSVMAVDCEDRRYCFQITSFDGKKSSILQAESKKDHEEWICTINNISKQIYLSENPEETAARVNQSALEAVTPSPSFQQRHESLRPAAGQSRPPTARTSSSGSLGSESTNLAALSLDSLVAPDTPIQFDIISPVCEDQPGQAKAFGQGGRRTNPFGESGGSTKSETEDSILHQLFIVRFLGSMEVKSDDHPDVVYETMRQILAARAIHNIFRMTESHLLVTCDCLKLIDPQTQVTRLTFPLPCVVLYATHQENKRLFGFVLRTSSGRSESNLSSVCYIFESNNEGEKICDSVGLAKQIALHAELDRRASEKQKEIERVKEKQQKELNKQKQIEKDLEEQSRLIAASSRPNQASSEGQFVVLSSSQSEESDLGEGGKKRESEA
B2: BAG family molecular chaperone regulator 5 (Homo sapiens), Q9UL15 (parent)
chain: MDMGNQHPSISRLQEIQKEVKSVEQQVIGFSGLSDDKNYKKLERILTKQLFEIDSVDTEGKGDIQQARKRAAQETERLLKELEQNANHPHRIEIQNIFEEAQSLVREKIVPFYNGGNCVTDEFEEGIQDIILRLTHVKTGGKISLRKARYHTLTKICAVQEIIEDCMKKQPSLPLSEDAHPSVAKINFVMCEVNKARGVLIALLMGVNNNETCRHLSCVLSGLIADLDALDVCGRTEIRNYRREVVEDINKLLKYLDLEEEADTTKAFDLRQNHSILKIEKVLKRMREIKNELLQAQNPSELYLSSKTELQGLIGQLDEVSLEKNPCIREARRRAVIEVQTLITYIDLKEALEKRKLFACEEHPSHKAVWNVLGNLSEIQGEVLSFDGNRTDKNYIRLEELLTKQLLALDAVDPQGEEKCKAARKQAVRLAQNILSYLDLKSDEWEY
B3: Coiled-coil domain-containing protein 60 (Homo sapiens), Q8IWA6 (parent)
chain: MTKVPATKKLQSSPNSGAVRPFYASENLRQVPDKPMKSIKYMDKEIINLKKDLIRSRFLIQSVKIGRGYFAILREETAKKKKQQQLQKLKEEERNKFQPAEKISEIHYGDTLLSTYDDEKLKTLGARVTRRPFTPIHSCIISPSLTEAHVEPLFRQLCALHWLLEALTIDHTHHTMKPVITCWNPKDPGGSKSTIKKINKDKSMGQKWEHFITAPKTKKFKIPTMRVTNRKPSRRGSTLSLSRASGGSSPQSSMISVNPGSDEPPSVNTQVTSSKDIEDNESSSTKPDEEPLYMNLQKLLEMVREDARRTVTIENGMQRKAPSILSVLKQNKSNSAYKEMQTTLKSSERSSSTSAESHIQPVQKKSKNRTNCDINIHYKSGVCNTMRAKFYSVAQEAGFCLQDKMEILMKRQEERGIQKFRAFVLVSNFQKDIAKMRHHISVVKGDAEEIADHWYFDLLSKLPEDLKNFRPAKKILVKLQKFGENLDLRIRPHVLLKVLQDLRIWELCSPDIAVAIEFVREHIIHMPQEDYISWLQSRINIPIGPYSALR
B4: Glutathione S-transferase Mu 5 (Homo sapiens), P46439 (parent)
chain: MPMTLGYWDIRGLAHAIRLLLEYTDSSYVEKKYTLGDAPDYDRSQWLNEKFKLGLDFPNLPYLIDGAHKITQSNAILRYIARKHNLCGETEEEKIRVDILENQVMDNHMELVRLCYDPDFEKLKPKYLEELPEKLKLYSEFLGKRPWFAGDKITFVDFLAYDVLDMKRIFEPKCLDAFLNLKDFISRFEGLKKISAYMKSSQFLRGLLFGKSATWNSK
partner: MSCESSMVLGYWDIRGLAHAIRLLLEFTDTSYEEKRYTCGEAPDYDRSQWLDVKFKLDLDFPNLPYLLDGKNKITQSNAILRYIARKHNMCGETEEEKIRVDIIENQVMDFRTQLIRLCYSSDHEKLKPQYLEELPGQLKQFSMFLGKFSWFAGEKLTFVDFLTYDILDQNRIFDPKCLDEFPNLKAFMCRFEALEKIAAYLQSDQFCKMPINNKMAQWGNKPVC
B5: Inactive peptidyl-prolyl cis-trans isomerase FKBP6 (Homo sapiens), O75344 (parent)
chain: MGGSALNQGVLEGDDAPGQSLYERLSQRMLDISGDRGVLKDVIREGAGDLVAPDASVLVKYSGYLEHMDRPFDSNYFRKTPRLMKLGEDITLWGMELGLLSMRRGELARFLFKPNYAYGTLGCPPLIPPNTTVLFEIELLDFLDCAESDKFCALSAEQQDQFPLQKVLKVAATEREFGNYLFRQNRFYDAKVRYKRALLLLRRRSAPPEEQHLVEAAKLPVLLNLSFTYLKLDRPTIALCYGEQALIIDQKNAKALFRCGQACLLLTEYQKARDFLVRAQKEQPFNHDINNELKKLASCYRDYVDKEKEMWHRMFAPCGDGSTAGES
partner: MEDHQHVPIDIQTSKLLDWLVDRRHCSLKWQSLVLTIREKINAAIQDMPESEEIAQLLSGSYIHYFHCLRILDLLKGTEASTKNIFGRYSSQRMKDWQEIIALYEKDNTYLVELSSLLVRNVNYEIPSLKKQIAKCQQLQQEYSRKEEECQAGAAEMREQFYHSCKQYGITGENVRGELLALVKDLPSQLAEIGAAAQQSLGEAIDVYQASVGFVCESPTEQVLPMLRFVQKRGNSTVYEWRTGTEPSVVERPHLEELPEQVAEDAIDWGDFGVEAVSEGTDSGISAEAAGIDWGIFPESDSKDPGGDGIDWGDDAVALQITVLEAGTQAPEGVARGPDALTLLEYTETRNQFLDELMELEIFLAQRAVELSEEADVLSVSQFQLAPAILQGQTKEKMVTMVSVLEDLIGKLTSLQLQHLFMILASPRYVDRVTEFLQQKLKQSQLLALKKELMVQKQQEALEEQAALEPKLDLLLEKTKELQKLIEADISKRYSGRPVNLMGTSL
B6: Synaptotagmin-like protein 5 (Homo sapiens), Q8TDW5 (parent)
chain: MSKNSEFINLSFLLDHEKEMILGVLKRDEYLKKVEDKRIRKLKNELLEAKRRSGKTQQEASRVCVHCHRNLGLIFDRGDPCQACSLRVCRECRVAGPNGSWKCTVCDKIAQLRIITGEWFFEEKAKRFKQVNVLGTDVVRQSILRRSPGAEEVQSQEQTRQDAEKSDTSPVAGKKASHDGPKRKGFLLSKFRSATRGEIITPKTDTGRSYSLDLDGQHFRSLKSPPGSDRGSTGSSDLNDQEPGPRTPKSSRSNGVTPGTQSSPAPSTRTVTSVISREYGFENSMDLAAIEGTSQELTKSHRRNTSGTPSIAVSGTSLSSDQSRSELDLSESFTEDSEDTVSIRSKSVPGALDKDSLEETEESIDALVSSQLSTNTHRLASGLSTTSLNSMMSVYSETGDYGNVKVSGEILLHISYCYKTGGLYIFVKNCRNLAIGDEKKQRTDAYVKSYLLPDKSRNNKRKTKIRTGTNPEFNETLKYTISHTQLETRTLQLSVWHYDRFGRNSFLGEVEIPFDSWNFENPTDEWFVLQPKVEFAPDIGLQYKGELTVVLRYIPPEENLMLPPEQLQGNKTFKKGKKKESPVISGGILEVFIKEAKNLTAVKSGGTSDSFVKGYLLPDDSKATKHKTLVIKKSVNPQWNHTFMFSGIHPQDIKNVCLELTIWDKEAFSSNIFLGGVRLNSGSGVSHGKNVDWMDSQGEEQRLWQKMANNPGTPFEGVLMLRSSMGKCRL
B7: Keratin-associated protein 12-1 (Homo sapiens), P59990 (parent)
chain: MCHTSCSSGCQPACCAPSPCQASCYIPVGCQSSVCVPVSFKPAVCVPVRCQSSVCVPVSCRPVVYAAPSCQSSGCCQPSCTSVLCRPISCSTPSCC
B8: Glutathione S-transferase omega-2 (Homo sapiens), Q9H4Y5 (parent)
chain: MSGDATRTLGKGSQPPGPVPEGLIRIYSMRFCPYSHRTRLVLKAKDIRHEVVNINLRNKPEWYYTKHPFGHIPVLETSQCQLIYESVIACEYLDDAYPGRKLFPYDPYERARQKMLLELFCKVPHLTKECLVALRCGRECTNLKAALRQEFSNLEEILEYQNTTFFGGTCISMIDYLLWPWFERLDVYGILDCVSHTPALRLWISAMKWDPTVCALLMDKSIFQGFLNLYFQNNPNAFDFGLC

Variants of: B1
Conditions: with dp13a_human APPL1, Q9UKG1

| Variant | effect of a mutation on the interaction |
| --- | --- |
| K70R | with no effect |

Variants of: B2
Conditions: with thap1_human THAP1, Q9NVV9
Chain of thap1_human THAP1, Q9NVV9 (Q9NVV9 whole entry): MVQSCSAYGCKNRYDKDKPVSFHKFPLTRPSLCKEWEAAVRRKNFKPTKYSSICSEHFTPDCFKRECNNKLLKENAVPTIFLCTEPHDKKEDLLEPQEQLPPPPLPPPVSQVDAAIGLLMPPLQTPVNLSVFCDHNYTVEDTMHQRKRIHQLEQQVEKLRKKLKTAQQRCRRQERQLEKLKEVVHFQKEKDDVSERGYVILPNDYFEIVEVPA

| Variant | effect of a mutation on the interaction |
| --- | --- |
| I279L | with no effect |

Variants of: B3
Conditions: with mtus2_human MTUS2, Q5JR59
Chain of mtus2_human MTUS2, Q5JR59 (Q5JR59 whole entry): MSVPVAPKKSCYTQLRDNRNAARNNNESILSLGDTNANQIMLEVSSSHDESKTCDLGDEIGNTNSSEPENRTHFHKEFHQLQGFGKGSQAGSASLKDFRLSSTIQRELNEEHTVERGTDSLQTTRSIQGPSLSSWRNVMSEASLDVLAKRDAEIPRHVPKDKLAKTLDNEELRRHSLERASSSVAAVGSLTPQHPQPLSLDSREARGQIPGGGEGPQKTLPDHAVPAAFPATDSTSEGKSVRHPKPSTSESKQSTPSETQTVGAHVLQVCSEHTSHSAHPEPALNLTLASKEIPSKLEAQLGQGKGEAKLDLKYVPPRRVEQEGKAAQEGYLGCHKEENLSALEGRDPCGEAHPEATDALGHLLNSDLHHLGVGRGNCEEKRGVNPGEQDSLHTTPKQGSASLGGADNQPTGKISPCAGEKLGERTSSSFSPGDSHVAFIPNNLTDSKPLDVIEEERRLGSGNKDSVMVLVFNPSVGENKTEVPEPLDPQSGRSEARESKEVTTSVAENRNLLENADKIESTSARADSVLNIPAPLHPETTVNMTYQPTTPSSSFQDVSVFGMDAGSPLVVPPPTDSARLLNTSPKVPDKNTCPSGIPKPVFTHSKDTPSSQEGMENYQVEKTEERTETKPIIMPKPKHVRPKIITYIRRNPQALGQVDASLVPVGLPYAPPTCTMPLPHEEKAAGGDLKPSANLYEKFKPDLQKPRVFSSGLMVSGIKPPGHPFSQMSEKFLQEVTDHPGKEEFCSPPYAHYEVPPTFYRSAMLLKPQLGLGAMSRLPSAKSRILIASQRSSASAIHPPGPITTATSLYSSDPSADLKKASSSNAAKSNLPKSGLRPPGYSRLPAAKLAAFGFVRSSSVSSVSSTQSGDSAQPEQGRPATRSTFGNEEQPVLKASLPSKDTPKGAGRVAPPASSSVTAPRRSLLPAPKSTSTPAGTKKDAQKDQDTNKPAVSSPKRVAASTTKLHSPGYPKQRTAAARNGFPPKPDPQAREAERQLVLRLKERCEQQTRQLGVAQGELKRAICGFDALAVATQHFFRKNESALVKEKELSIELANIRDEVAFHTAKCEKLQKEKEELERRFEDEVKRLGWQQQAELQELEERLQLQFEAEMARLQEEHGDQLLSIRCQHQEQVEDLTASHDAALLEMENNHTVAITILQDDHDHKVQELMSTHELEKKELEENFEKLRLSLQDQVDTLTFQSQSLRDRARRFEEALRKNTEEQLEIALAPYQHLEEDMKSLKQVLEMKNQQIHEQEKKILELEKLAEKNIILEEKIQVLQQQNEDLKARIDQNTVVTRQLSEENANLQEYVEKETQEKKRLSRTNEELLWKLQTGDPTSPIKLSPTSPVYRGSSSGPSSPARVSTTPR

| Variant | effect of a mutation on the interaction |
| --- | --- |
| I46V | disrupting interaction strength |

Variants of: B4
Conditions: with gstm3_human GSTM3, P21266

| Variant | effect of a mutation on the interaction |
| --- | --- |
| L179P | with no effect |

Variants of: B5
Conditions: with ck5p3_human CDK5RAP3, Q96JB5

| Variant | effect of a mutation on the interaction |
| --- | --- |
| H287N | with no effect |
| R175Q | with no effect |

Variants of: B6
Conditions: with cep70_human CEP70, Q8NHQ1
Chain of cep70_human CEP70, Q8NHQ1 (Q8NHQ1 whole entry): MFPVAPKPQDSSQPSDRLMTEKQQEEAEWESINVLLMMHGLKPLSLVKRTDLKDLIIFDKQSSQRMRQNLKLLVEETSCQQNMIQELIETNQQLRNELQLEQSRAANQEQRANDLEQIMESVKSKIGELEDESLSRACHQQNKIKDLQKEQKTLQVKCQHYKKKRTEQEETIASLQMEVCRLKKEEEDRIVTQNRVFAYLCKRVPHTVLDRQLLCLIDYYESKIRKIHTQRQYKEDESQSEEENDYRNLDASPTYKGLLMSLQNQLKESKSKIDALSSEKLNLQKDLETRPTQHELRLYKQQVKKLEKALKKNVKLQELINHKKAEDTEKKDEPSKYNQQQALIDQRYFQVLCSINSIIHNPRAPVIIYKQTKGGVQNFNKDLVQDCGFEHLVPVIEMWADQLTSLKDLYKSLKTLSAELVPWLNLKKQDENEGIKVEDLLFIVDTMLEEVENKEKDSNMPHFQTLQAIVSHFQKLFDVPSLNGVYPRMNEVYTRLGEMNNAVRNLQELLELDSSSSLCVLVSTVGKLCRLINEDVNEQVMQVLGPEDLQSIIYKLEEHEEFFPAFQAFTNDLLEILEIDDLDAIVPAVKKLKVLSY

| Variant | effect of a mutation on the interaction |
| --- | --- |
| S369P | with no effect |
| R160H | with no effect |
| D400N | with no effect |

Variants of: B7
Conditions: with meox2_human MEOX2, P50222
Chain of meox2_human MEOX2, P50222 (P50222 whole entry): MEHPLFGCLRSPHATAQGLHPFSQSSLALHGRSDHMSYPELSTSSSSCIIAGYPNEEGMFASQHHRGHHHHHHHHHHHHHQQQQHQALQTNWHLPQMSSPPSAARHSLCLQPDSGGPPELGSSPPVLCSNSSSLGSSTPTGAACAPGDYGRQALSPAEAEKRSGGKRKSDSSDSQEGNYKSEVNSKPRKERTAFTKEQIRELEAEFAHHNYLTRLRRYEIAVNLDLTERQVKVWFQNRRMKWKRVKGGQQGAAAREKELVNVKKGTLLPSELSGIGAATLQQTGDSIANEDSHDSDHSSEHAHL

| Variant | effect of a mutation on the interaction |
| --- | --- |
| A16T | with no effect |

Variants of: B8
Conditions: with ap2a_human TFAP2A

| Variant | effect of a mutation on the interaction |
| --- | --- |
| N142D | with no effect |
